# Measured values taken from US20260008815A1, “CYCLIC PEPTIDE OR SALT THEREOF, AND USES THEREOF” (FUJIFILM Corporation, priority 2023, published 2026).
# Bridge positions count the residues as written; N and C are the ends. Ends that are not written are not given here. COCH2 = acetyl group that carries the bridge
# Target: T1, Recombinant Human FGFR2 alpha (IIIc) Fc Chimera Protein, CF (R&D systems, 712-FR-050) (human, UniProt P21802 22-377)
# T1 construct: bought; not shown: Fc part of the chimera
# Experiment: ELISA on plate-bound FGFR2-Fc
# Protocol: First, 5 ng of Recombinant Human FGFR2 alpha (IIIc) Fc Chimera Protein (R&D systems, 712-FR-050) was immobilized in each well of a 96-well plate, and blocked with Pierce Protein-Free (PBS) Blocking Buffer (Thermo, 37572), and a peptide diluted with Can Get Signal Immunoreaction Enhancer Solution I (TOYOBO, NKB-101) was then added and reacted at room temperature for 3 hours. After washing with 0.05% Tween 20-containing phosphate buffered saline (PBS), an anti-Myc antibody (Cell Signaling, 14038S) diluted with Can Get Signal Immunoreaction Enhancer Solution II (TOYOBO, NKB-101) was added and reacted at room temperature for 2 hours. After washing with 0.05% Tween 20-containing PBS, SuperSignal ELISA Femto Substrate (Thermo, 37075) was added, and the luminescence amount was measured. The dose-response relationship was calculated from using the difference between the luminescence amount in the well in which FGFR was immobilized and the luminescence amount in the well in which FGFR was not immobilized, and the concentration of the peptide at the time of reaction, and the binding affinity to FGFR was evaluated according to the following evaluation criteria. The evaluation result preferably satisfies the evaluation criteria A, B, or C.
# T1 sequence (P21802 22-377, change not shown): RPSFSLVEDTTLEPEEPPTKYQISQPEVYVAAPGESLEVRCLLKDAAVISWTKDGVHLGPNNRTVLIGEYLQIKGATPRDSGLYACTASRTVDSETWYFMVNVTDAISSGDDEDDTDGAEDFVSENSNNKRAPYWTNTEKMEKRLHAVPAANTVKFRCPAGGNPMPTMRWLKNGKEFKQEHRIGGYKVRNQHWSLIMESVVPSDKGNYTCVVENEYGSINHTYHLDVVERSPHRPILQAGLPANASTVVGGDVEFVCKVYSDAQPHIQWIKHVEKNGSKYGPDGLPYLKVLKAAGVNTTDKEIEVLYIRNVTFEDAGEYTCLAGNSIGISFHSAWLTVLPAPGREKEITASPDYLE
row,Binder,"ELISA luminescence signal at 10 nmol/L peptide, relative to SEQ ID NO: 47 (=1) [ratio]"
1,YCEQNYLDPEQYQYFIYFK(COCH2)Y (thioether 2-19 (inferred)) [cyclic peptide SEQ ID NO: 175],≥ 0.7
2,YCEENQLDPEQYQYFIYFK(COCH2)Y (thioether 2-19 (inferred)) [cyclic peptide SEQ ID NO: 190],0.1 to 0.5
3,YCERNYLDPEQYQYFIYFK(COCH2)Y (thioether 2-19 (inferred)) [cyclic peptide SEQ ID NO: 179],≥ 0.7
4,YCEENYWDPEQYQYFIYFK(COCH2)Y (thioether 2-19 (inferred)) [cyclic peptide SEQ ID NO: 199],≥ 0.7
5,YCEENYFDPEQYQYFIYFK(COCH2)Y (thioether 2-19 (inferred)) [cyclic peptide SEQ ID NO: 197],≥ 0.7
6,YCEENRLDPEQYQYFIYFK(COCH2)Y (thioether 2-19 (inferred)) [cyclic peptide SEQ ID NO: 193],0.1 to 0.5
7,YCEENYVDPEQYQYFIYFK(COCH2)Y (thioether 2-19 (inferred)) [cyclic peptide SEQ ID NO: 196],≥ 0.7
8,YCESNYLDPEQYQYFIYFK(COCH2)Y (thioether 2-19 (inferred)) [cyclic peptide SEQ ID NO: 176],≥ 0.7
9,YCEENYEDPEQYQYFIYFK(COCH2)Y (thioether 2-19 (inferred)) [cyclic peptide SEQ ID NO: 204],0.1 to 0.5
10,YCEENLLDPEQYQYFIYFK(COCH2)Y (thioether 2-19 (inferred)) [cyclic peptide SEQ ID NO: 186],0.1 to 0.5
11,YCEEGYLDPEQYQYFIYFK(COCH2)Y (thioether 2-19 (inferred)) [cyclic peptide SEQ ID NO: 181],0.5 to 0.7
12,YCEEWYLDPEQYQYFIYFK(COCH2)Y (thioether 2-19 (inferred)) [cyclic peptide SEQ ID NO: 182],0.1 to 0.5
13,YCEENYSDPEQYQYFIYFK(COCH2)Y (thioether 2-19 (inferred)) [cyclic peptide SEQ ID NO: 202],0.5 to 0.7
14,YCEENDLDPEQYQYFIYFK(COCH2)Y (thioether 2-19 (inferred)) [cyclic peptide SEQ ID NO: 192],0.1 to 0.5
15,YCEENNLDPEQYQYFIYFK(COCH2)Y (thioether 2-19 (inferred)) [cyclic peptide SEQ ID NO: 189],0.5 to 0.7
16,YCEENSLDPEQYQYFIYFK(COCH2)Y (thioether 2-19 (inferred)) [cyclic peptide SEQ ID NO: 191],0.1 to 0.5
17,YCEENYNDPEQYQYFIYFK(COCH2)Y (thioether 2-19 (inferred)) [cyclic peptide SEQ ID NO: 200],0.1 to 0.5

row,Binder,"ELISA luminescence signal at 10 nmol/L peptide, relative to SEQ ID NO: 47 (=1) [ratio]"
1,YCEENYRDPEQYQYFIYFK(COCH2)Y (thioether 2-19 (inferred)) [cyclic peptide SEQ ID NO: 205],≥ 0.7
2,YCETNYLDPEQYQYFIYFK(COCH2)Y (thioether 2-19 (inferred)) [cyclic peptide SEQ ID NO: 177],≥ 0.7
3,YCEENYQDPEQYQYFIYFK(COCH2)Y (thioether 2-19 (inferred)) [cyclic peptide SEQ ID NO: 201],≥ 0.7
4,YCEEQYLDPEQYQYFIYFK(COCH2)Y (thioether 2-19 (inferred)) [cyclic peptide SEQ ID NO: 183],0.1 to 0.5
5,YCEENYYDPEQYQYFIYFK(COCH2)Y (thioether 2-19 (inferred)) [cyclic peptide SEQ ID NO: 198],≥ 0.7
6,YCEENYTDPEQYQYFIYFK(COCH2)Y (thioether 2-19 (inferred)) [cyclic peptide SEQ ID NO: 203],≥ 0.7
7,YCEDNYLDPEQYQYFIYFK(COCH2)Y (thioether 2-19 (inferred)) [cyclic peptide SEQ ID NO: 178],≥ 0.7
8,YCEESYLDPEQYQYFIYFK(COCH2)Y (thioether 2-19 (inferred)) [cyclic peptide SEQ ID NO: 184],0.1 to 0.5
9,YCEETYLDPEQYQYFIYFK(COCH2)Y (thioether 2-19 (inferred)) [cyclic peptide SEQ ID NO: 185],0.1 to 0.5
10,YCEENHLDPEQYQYFIYFK(COCH2)Y (thioether 2-19 (inferred)) [cyclic peptide SEQ ID NO: 194],≥ 0.7
11,YCEENYLGPEQYQYFIYFK(COCH2)Y (thioether 2-19 (inferred)) [cyclic peptide SEQ ID NO: 207],≥ 0.7
12,YCEENWLDPEQYQYFIYFK(COCH2)Y (thioether 2-19 (inferred)) [cyclic peptide SEQ ID NO: 188],≥ 0.7
13,YCEENYHDPEQYQYFIYFK(COCH2)Y (thioether 2-19 (inferred)) [cyclic peptide SEQ ID NO: 206],≥ 0.7
14,YCEENYIDPEQYQYFIYFK(COCH2)Y (thioether 2-19 (inferred)) [cyclic peptide SEQ ID NO: 195],≥ 0.7
15,YCEHNYLDPEQYQYFIYFK(COCH2)Y (thioether 2-19 (inferred)) [cyclic peptide SEQ ID NO: 180],≥ 0.7
16,YCEENFLDPEQYQYFIYFK(COCH2)Y (thioether 2-19 (inferred)) [cyclic peptide SEQ ID NO: 187],≥ 0.7
